Laboratory results taken from PMC10350107.

Assays:
[1] = tested on: MCM8 (FLAG-MCM8);MCM9 (MBP-MCM9) (human;human); test: EMSA; settings: EMSA: 25 mM Tris acetate pH 7.5, 3 mM EDTA (or 4 mM ATP + 1 mM Mg acetate), 1 mM DTT, 0.1 mg/ml BSA, 1 nM DNA (100 ng for plasmid-length DNA), 15 min on ice …
[2] = molecular target: human MCM8–9 complex, wild type (FLAG-MCM8 with MBP-MCM9, co-expressed) (human) (UniProt Q9UJA3)
Chain of human MCM8–9 complex, wild type (FLAG-MCM8 with MBP-MCM9, co-expressed) (human) (Q9UJA3 whole entry, chain 1 of 2): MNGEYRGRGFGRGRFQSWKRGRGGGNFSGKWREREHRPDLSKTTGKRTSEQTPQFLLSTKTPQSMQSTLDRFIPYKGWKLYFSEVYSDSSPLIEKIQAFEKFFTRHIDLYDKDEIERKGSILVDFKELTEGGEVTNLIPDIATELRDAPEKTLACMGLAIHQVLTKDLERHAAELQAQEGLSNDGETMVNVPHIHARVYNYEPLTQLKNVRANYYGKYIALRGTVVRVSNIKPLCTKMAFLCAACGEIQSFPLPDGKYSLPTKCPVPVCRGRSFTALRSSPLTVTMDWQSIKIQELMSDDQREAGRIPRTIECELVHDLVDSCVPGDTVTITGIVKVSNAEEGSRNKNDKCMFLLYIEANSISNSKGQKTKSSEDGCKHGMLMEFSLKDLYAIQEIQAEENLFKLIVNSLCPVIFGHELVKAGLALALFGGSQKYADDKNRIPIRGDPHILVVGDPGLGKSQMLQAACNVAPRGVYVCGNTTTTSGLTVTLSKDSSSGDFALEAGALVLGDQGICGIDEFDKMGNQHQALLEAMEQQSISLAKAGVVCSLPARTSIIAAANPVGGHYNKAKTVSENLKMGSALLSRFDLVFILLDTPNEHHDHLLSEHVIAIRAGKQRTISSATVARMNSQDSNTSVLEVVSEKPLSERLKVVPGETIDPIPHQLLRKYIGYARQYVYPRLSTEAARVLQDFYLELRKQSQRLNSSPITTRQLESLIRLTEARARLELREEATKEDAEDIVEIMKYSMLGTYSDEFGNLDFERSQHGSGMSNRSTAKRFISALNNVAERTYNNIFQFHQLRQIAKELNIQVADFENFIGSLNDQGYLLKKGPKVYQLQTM
Chain of human MCM8–9 complex, wild type (FLAG-MCM8 with MBP-MCM9, co-expressed) (human) (Q9NXL9 whole entry, chain 2 of 2, further chain): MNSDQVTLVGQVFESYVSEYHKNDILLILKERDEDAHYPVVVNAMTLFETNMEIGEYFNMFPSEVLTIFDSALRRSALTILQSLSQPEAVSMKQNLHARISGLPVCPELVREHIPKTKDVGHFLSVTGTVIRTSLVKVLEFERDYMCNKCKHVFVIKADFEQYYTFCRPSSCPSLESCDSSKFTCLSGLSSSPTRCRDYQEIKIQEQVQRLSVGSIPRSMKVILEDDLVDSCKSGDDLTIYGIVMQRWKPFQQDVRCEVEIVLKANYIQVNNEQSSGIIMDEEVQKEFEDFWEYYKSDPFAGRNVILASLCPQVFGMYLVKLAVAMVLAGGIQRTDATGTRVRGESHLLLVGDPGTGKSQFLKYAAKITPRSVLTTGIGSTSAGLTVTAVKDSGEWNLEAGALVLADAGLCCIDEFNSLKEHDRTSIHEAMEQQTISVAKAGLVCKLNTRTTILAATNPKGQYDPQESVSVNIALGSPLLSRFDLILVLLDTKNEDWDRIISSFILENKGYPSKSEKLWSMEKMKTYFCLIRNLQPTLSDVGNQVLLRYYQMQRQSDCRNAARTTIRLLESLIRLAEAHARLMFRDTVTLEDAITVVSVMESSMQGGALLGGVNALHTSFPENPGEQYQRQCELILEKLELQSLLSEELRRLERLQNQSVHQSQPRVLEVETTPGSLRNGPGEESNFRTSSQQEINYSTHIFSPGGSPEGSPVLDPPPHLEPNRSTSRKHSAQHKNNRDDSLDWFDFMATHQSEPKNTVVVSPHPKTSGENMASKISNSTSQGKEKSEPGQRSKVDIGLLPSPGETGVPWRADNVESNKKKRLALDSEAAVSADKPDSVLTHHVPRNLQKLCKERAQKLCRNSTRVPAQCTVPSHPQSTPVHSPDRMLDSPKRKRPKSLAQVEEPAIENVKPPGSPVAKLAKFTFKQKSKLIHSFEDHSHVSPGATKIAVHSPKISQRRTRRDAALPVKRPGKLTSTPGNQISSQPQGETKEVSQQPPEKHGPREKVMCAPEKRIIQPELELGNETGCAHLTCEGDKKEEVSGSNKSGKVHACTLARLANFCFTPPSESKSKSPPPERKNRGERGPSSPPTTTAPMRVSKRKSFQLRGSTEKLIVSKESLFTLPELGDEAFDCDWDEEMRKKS

| ATP hydrolysis by MCM8–9 (200 nM) without or with HROB, DNA as co-factor; stimulation 1.5 to 2-fold [2] [fold] | Substance | K half [1] [nM] |
| --- | --- | --- |
|  | Y-structure (PC1254/PC1253) | 55 |
|  | Holliday junction (PC1253/PC1254/PC1255/PC1256) | 55 |
| 1.5 to 2 | HROB-FLAG, wild type human HROB (homologous recombination factor with OB-fold) (from UniProt Q8N3J3-4 1-646) (natural protein) |  |
